Positions count from the first letter of the chain named. Numbers in names are those of the source.
How the values were obtained:
[1] = target: the molecule itself; test: cross-linking; glutaraldehyde, final concentration 0.075%, SDS-PAGE; negative control with 1% SDS and 20 mM DTT added before the reaction
[2] = target: the molecule itself; test: SEC; Superdex 200 Increase 10/300 Gl, 100 μl of approximately 2 mg/ml, 0.5 ml/min; wild-type and mutant Ints3-555-976
[3] = target: Ints3 C-terminal domain (Ints3-555-976) WT (human, UniProt Q68E01-2 555-976); test: EMSA; roughly 100% bound at 25 uM protein; 20 mM Hepes pH 7.4, 100 mM NaCl, 1 mM MgCl2, 1 mg/ml BSA, 2 mM DTT, 5% glycerol; on ice 30 min; 7.5 nM probe; native 5% PAGE in 1X TBE; conditions: protein: recombinant; tags: His or GST (GST cleaved); chain copies: 2; label: 5' 32P; single strand
[4] = target: T1, GST-tagged Ints3-555-976 R863A/D869A (human, UniProt Q68E01-2 555-976, R863A | D869A); test: pull-down; coexpression in E. coli of GST-tagged Ints3 constructs (pGEX-6p-1) and MBP-Ints6-807-887 (pRSFDuet-1), GST or MBP pull-down ('coexpression and reverse pull-down'); conditions: partners not purified
T1 construct: numbers count on: UniProtKB Q68E01-2, 1042 amino acids; source: E. coli BL21, coexpressed with MBP-Ints6-807-887; also captured on glutathione Sepharose from lysate; not shown: GST, N-terminal, kept

[5] = target: T2, GST-tagged Ints3-555-976, wild type (human, UniProt Q68E01-2 555-976); test: pull-down; in vitro GST pull-down: GST-Ints3 captured on glutathione Sepharose 4B from BL21 lysates, incubated with about 15 μg purified MBP-Ints6-807-887; 20 mM Tris-HCl pH 8.0, 300 mM NaCl, 0.1% Nonidet P-40, 5% glycerol, 2 mM DTT, 2 h at 4 °C; anti-MBP blot; conditions: both partners purified
T2 construct: numbers count on: UniProtKB Q68E01-2, 1042 amino acids; also called GST-Ints3; GST-tagged Ints3 C-terminal domain; source: E. coli BL21, captured on glutathione Sepharose from lysate; also coexpressed with MBP-Ints6-807-887; not shown: GST, N-terminal, kept

[6] = target: T3, GST-tagged Ints3-555-899 (human, UniProt Q68E01-2 555-899); test: as above; conditions: both partners purified
T3 construct: numbers count on: UniProtKB Q68E01-2, 1042 amino acids; source: E. coli BL21, captured on glutathione Sepharose from lysate

B1: Ints3-555-976 (human Ints3 C-terminal domain), wild type (domain or fragment, UniProt Q68E01-2 555-976, looked up)
chain: PIKETVVEEPVDITPYLDQLDESLRDKVLQLQKGSDTEAQCEVMQEIVDQVLEEDFDSEQLSVLASCLQELFKAHFRGEVLPEEITEESLEESVGKPLYLIFRNLCQMQEDNSSFSLLLDLLSELYQKQPKIGYHLLYYLRASKAAAGKMNLYESFAQATQLGDLHTCLMMDMKACQEDDVRLLCHLTPSIYTEFPDETLRSGELLNMIVAVIDSAQLQELVCHVMMGNLVMFRKDSVLNILIQSLDWETFEQYCAWQLFLAHNIPLETIIPILQHLKYKEHPEALSCLLLQLRREKPSEEMVKMVLSRPCHPDDQFTTSILRHWCMKHDELLAEHIKSLLIKNNSLPRKRQSLRSSSSKLAQLTLEQILEHLDNLRLNLTNTKQNFFSQTPILQALQHVQASCDEAHKMKFSDLFSLAEEY
notes: numbers count on: UniProtKB Q68E01-2, 1042 amino acids; For crystallisation a trace of trypsin (1:1000 w/w) was added; it cuts after K557 and after K914, and both fragments stay in the crystal; SeMet protein was used for phasing; also called HR1-11; Band I; not shown: GST, N-terminal, cleaved
- stoichiometry N [1]: 2

B2: Ints3-555-976 K851E (domain or fragment, human, UniProt Q68E01-2 555-976, looked up)
chain: B1 chain with K297E
notes: numbers count on: UniProtKB Q68E01-2, 1042 amino acids; also called K851 E charge mutant; source: purified to homogeneity (gel filtration)
- stoichiometry N [2]: 2

B3: Ints3-555-976 R788E/K789E (domain or fragment, human, UniProt Q68E01-2 555-976, looked up)
chain: B1 chain with R234E, K235E
notes: numbers count on: UniProtKB Q68E01-2, 1042 amino acids; source: purified to homogeneity (gel filtration)
- stoichiometry N [2]: 2

Binder: UUUUUUUUUUUUUUUUUUUUUUUUUUUUUU (ssRNA) [rU30]
- binding result [3]: binds

B4: MBP-Ints6-807-887 (domain or fragment, UniProt Q9UL03 807-887, looked up)
chain: EVNTELKAQIMKEIRKPGRKYERIFTLLKHVQGSLQTRLIFLQNVIKEASRFKKRMLIEQLENFLDEIHRRANQINHINSN
notes: Integrator complex subunit 6 (Ints6, DDX26a), residues 807-887; cDNA from DNAsu; Made in a modified pMal-c2X vector: an AAAEF linker and no protease site stand between MBP and Ints6-807-887; the MBP-Ints6-807-887 region was then cloned into pRSFDuet-1; also called MBP-tagged Ints6-807-887; source: E. coli BL21-CodonPlus (DE3)-RIPL, purified (amylose resin, HiTrap Q); also coexpressed with …
- binding result [4]: binds
- binding result [5]: binds
- binding result [6]: binds
